Data on 4 molecules can be found in US9757451B2, “Use of RANK/RANKL antagonists for treating muscular dystrophy” (UNIVERSITÉ LAVAL, priority 2011, dated 2017).

Entries after “also recorded” stand apart in the source; their conditions may differ.

The test system of series [1] is C2C12 myotubes. Put plainly: Dexamethasone-induced myotube atrophy (myotube diameter) in vitro. The series is classed as cell-based, mouse. As to the method:
FIG. 9. […] Myotubes were incubated with DEX (1,000 nM) and/or OPG at 10 ng/mL or 100 ng/mL. OPG used and tested in vivo and in vitro was bought from R&D systems (Catalog number:459-MO).
To further investigate how RANK/RANKL influences muscle function, the present inventor(s) have assessed the effect of DEX on C2C12 myoblasts grown in DMEM containing 10% FBS and 1% antibiotic-antimycotic in 96-well plates at a density of 3,000 myoblasts/well. The present inventor(s) used this mouse myoblast cell line because the present inventor(s) are very familiar with it and because it easily differentiates into myotubes and responds to RANKL stimulation. Confluent myoblasts on coverslips (approximately 300,000/well) were incubated in DMEM containing 2% horse serum for five days to allow them to differentiate into myotubes. The myotubes were then exposed to […]. This concentration was sufficient to induce a 15-20% decrease in myotube diameter relative to control myotubes after 48 h. Myotubes in other wells were treated or not with 1 mM DEX combined with 100 ng/ml of OPG. In the experiment proposed herein, myotube atrophy were determined by measuring the diameters of the myotubes at 100× magnification using a light microscope (Nikon). Three different sites in each well were blindly identified and observed throughout the experiment. The average were considered as a single value. Myotube diameters were quantified using the ImageJ digital imaging system (NIH). The diameters of 150 to 200 myotubes per well were measured after 24 and 48 h. Measurements were performed in triplicate for all the experimental conditions to enable statistical comparisons between groups.

For series [2] the following is noted: cited from earlier work.
In a further series the test system is C57BL/10J mice. Put plainly: Contractile and physical properties of SOL and EDL muscles of C57BL/10J control mice injected with OPG. The series is classed as in vivo. Conditions: OPG 0.3 mg/kg/day i.p. 10 days, mean +/- sem. An excerpt: (§1) Muscle contractility measurements were used to test the involvement of the RANK/RANKL pathway in muscle dysfunction. In vitro measurements of muscle contractility are the gold standard for assessing muscle function and were be performed as described previously^68,69. […] Twitch and tetanic contractions were elicited, and the following measurements recorded: maximum twitch tension (Pt), time to peak tension (TPT), one-half relaxation time (RT 1/2), and maximum tetanic tension (Po). To assess muscle fatigue, EDL and SOL muscles from RANK^fl/fl and RANK^del/fl mice were stimulated at 1 train/s at 50 Hz, and the time to the loss of 30% of their initial force recorded. […] Consistent with this observation that RANK^del/fl mice expressed a faster muscle phenotype than wild type, SOL and EDL muscles from these mice were less resistant to a fatigue protocol (FIGS. 5,6). The muscles were weighed without their tendons to quantify muscle mass and to allow the calculation of the maximum specific Po (N/cm^2).
(§2) SOL and EDL muscles from male wild type and mdx mice were dissected and contractile properties analyzed at 4 weeks of age.

The subject of another series is mdx mice. In words: Contractile and physical properties of SOL and EDL muscles of mdx mice injected with OPG. Conditions: for half relaxation time (½ RT) / maximal absolute force (Po) / maximal twitch tension (Pt) / time to peak tension (TPT) / Muscle weight: mdx, mean +/- sem. The series is classed as in vivo.
Description: as §1
Male mdx mice (C57BL/10ScSnJ) were purchased from Jackson Laboratories. Mdx mice were then injected i.p. with OPG (0.3 mg/kg/day) for 10 days during the 3rd and 4th week of life. Body weight were measured every 2 days and drug volume were adjusted accordingly. This concentration of OPG is selected because it is known to inhibit RANKL and bone resorption.
as §2

In series [3] the test system is C2C12 myotubes. Put plainly: Ca2+ concentration in myotubes measured with fluo-4. The series is classed as cell-based, mouse. The note with it: RANKL 100 ng/ml, 10 min; myotubes 5 days in differentiation medium. As for the experimental part:
FIG. 17: RANK/RANKL interaction influences Ca^2+ homeostasis and activates different cell signaling pathways. […] Data are presented as mean+/−sem.
C2C12 myotubes fully differentiated were incubated with fluo-4 to measure Ca^2+ concentration. C2C12 Myotubes were then exposed to RANKL (100 ng/ml) for 10 min. […] (FIG. 17A). Serca activity in sham and denervated RANK^del/fl compared to sham and denervated RANK^fl/fl EDL muscles were then measured by spectrofluorimetric analysis. SERCA activity increased by more than 2-fold in EDL muscles from sham and denervated RANK^del/fl mice (FIG. 17B). […] Graph representing the difference in the expression of SERCA isoforms for each fiber type for SOL and EDL muscles compared to sham RANK^fl/fl mice. (FIG. 17E). […] Data are presented as mean+/−sem.

[4] abbreviates: EDL muscle ex vivo, OPG 0.3 mg/kg/day i.p. 10 days.
The mark [5] stands for this setting: SOL muscle ex vivo, OPG 0.3 mg/kg/day i.p. 10 days.

For the molecule `C[C@@H]1C[C@H]2[C@@H]3CCC4=CC(=O)C=C[C@]4(C)[C@@]3(F)[C@@H](O)C[C@]2(C)[C@@]1(O)C(=O)CO` [DEX, dexamethasone, reference compound], the “decrease in myotube diameter relative to control myotubes” value in the series with C2C12 myotubes [1] (1 mM DEX, after 48 h) is 15-20%.
As for “Denosumab: full human antibody that shares the pharmalogical attributes of OPG; RANKL antagonist”, in series [2], the “half-life relative to OPG” value is reported as “significant longer half-life”.

B1: OPG: Osteoprotegerin, binds RANKL and inhibits the RANK/RANKL interaction; bought from R&D systems (Catalog number:459-MO) (protein, UniProt O08712 22-401, looked up)
Tumor necrosis factor …: ETLPPKYLHYDPETGHQLLCDKCAPGTYLKQHCTVRRKTLCVPCPDHSYTDSWHTSDECVYCSPVCKELQSVKQECNRTHNRVCECEEGRYLEIEFCLKHRSCPPGSGVVQAGTPERNTVCKKCPDGFFSGETSSKAPCIKHTNCSTFGLLLIQKGNATHDNVCSGNREATQKCGIDVTLCEEAFFRFAVPTKIIPNWLSVLVDSLPGTKVNAESVERIKRRHSSQEQTFQLLKLWKHQNRDQEMVKKIIQDIDLCESSVQRHLGHSNLTTEQLLALMESLPGKKISPEEIERTRKTCKSSEQLLKLLSLWRIKNGDQDTLKGLMYALKHLKTSHFPKTVTHSLRKTMRFLHSFTMYRLYQKLFLEMIGNQVQSVKISCL
Take B1: the “half relaxation time (½ RT)” value with C57BL/10J mice (EDL muscle ex vivo) amounted to 20.3 ± 2.4 ms; in the series on C57BL/10J mice (SOL muscle ex vivo), 46.8 ± 5.7 ms; in the series with mdx mice (setting [4]), 20.67 ± 2.18 ms; in the series with mdx mice (setting [5]) it was 38 ± 3.3 ms. For the same molecule, the “maximal absolute force (Po)” value amounted to 14.53 ± 3.44 g in the series on C57BL/10J mice (EDL muscle ex vivo), 10.79 ± 0.27 g with C57BL/10J mice (SOL muscle ex vivo), 10.3 ± 1.3 g with mdx mice (setting [4]) and 8.02 ± 2.99 g with mdx mice (setting [5]). Moreover, the “maximal twitch tension (Pt)” value in the series with C57BL/10J mice (EDL muscle ex vivo) was found to be 2.52 ± 0.26 g; with C57BL/10J mice (SOL muscle ex vivo), 1.8 ± 0.06 g; in the series with mdx mice (setting [4]) it was 2.01 ± 0.2 g; in the series on mdx mice (setting [5]) it was 1.2 ± 0.18 g. The “time to peak tension (TPT)” value came out at 25.8 ± 2.6 ms with C57BL/10J mice (EDL muscle ex vivo), 50.75 ± 3.83 ms in the series on C57BL/10J mice (SOL muscle ex vivo), 29.75 ± 7.47 ms with mdx mice (setting [4]) and 35.2 ± 2.43 ms in the series on mdx mice (setting [5]). In addition, the Muscle weight came to 4.18 ± 0.25 mg with C57BL/10J mice (EDL muscle); 3.73 ± 0.20 mg with C57BL/10J mice (SOL muscle); 4.96 ± 0.93 mg in the series on mdx mice (EDL muscle, OPG 0.3 mg/kg/day i.p. 10 days); 4.90 ± 0.72 mg in the series on mdx mice (SOL muscle, OPG 0.3 mg/kg/day i.p. 10 days). Also, in the series on C2C12 myotubes [1] (1 mM DEX, >100 ng/ml of OPG, preliminary results), the “effect on DEX-induced atrophic and phenotype change process in myotubes” value was “reversed the atrophic and phenotype change process”. Besides, the “effect on DEX-induced myotube atrophy” value in the series with C2C12 myotubes [1] (DEX 1,000 nM, OPG 100 ng/ml, 24 and 48 h (FIG. 9)) was “protects against DEX-induced myotube atrophy; also recorded: totally reversed the atrophic process; also recorded: prevents myotube atrophy”. For the same molecule, the “increase of maximum force production (maximum specific tetanic force) of EDL muscles” value with mdx mice (male mdx mice, OPG 0.3 mg/kg daily 10 days from day 18 after birth, vs PBS) is on record as “more than 200%”. Besides, in the series with mdx mice (young mdx mice (28 days), OPG 0.3 mg/kg/day i.p. 10 days, compared to PBS), the “specific muscle force of EDL muscles” value is on record as “Specific muscle force preservation is also observed”.

B2: RANKL: receptor-activator of nuclear factor κβ ligand, added at 100 ng/ml to C2C12 myotubes (protein, UniProt O35235 139-316, looked up)
Tumor necrosis factor ligand …: FSGAPAMMEGSWLDVAQRGKPEAQPFAHLTINAASIPSGSHKVTLSSWYHDRGWAKISNMTLSNGKLRVNQDGFYYLYANICFRHHETSGSVPTDYLQLMVYVVKTSIKIPSSHNLMKGGSTKNWSGNSEFHFYSINVGGFFKLRAGEEISIQVSNPSLLDPDQDATYFGAFKVQDID
Regarding B2, the “effect on DEX-induced myotube atrophy” value in the series with C2C12 myotubes [1] (RANKL with DEX) is given as “exacerbates”. The “cytosolic Ca2+ (mean fluorescence intensity of fluo-4)” value in the series on C2C12 myotubes [3] is given as “increased the release of cytosolic Ca^2+; also recorded: increased mean fluorescence intensity of fluo-4”.
